Test results from publication PMC4789156 (Translational research : the journal of laboratory and …, 2015).

Biological target: Recombinant human Smad2 with C-terminal MYC/DDK tag (human, UniProt Q15796-1 1-467)
Experiment: co-IP

Chain of Recombinant human Smad2 with C-terminal MYC/DDK tag (Q15796 whole entry): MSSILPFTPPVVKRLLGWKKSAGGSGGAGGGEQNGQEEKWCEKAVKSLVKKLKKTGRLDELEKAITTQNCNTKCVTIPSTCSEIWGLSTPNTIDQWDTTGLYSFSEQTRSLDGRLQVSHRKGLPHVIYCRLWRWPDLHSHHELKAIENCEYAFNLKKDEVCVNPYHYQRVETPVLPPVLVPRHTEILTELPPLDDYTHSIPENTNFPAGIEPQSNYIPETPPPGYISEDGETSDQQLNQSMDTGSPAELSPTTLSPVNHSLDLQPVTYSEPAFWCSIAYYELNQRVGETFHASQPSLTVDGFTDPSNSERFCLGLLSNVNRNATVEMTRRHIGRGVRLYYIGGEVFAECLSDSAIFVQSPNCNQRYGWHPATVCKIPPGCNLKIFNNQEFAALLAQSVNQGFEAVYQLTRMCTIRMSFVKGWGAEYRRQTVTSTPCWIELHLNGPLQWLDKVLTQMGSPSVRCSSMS

binding result: binds
Binder: TRPASFWETS [M10 peptide (caspase-3 cleavage product of the hepatocyte growth factor receptor MET)]
